From patent US20160152729A1

Molecular target: human TFPIα (human) (UniProt P10646)
Test: SPR Biacore T200; antibody captured on anti-human IgG Fc; TFPI as analyte; 1:1 model

Kd: 0.485 nM
koff: 0.000399 s⁻¹
kon: 822000 M⁻¹ s⁻¹
Substance: Bay 2A8-K95L (antibody)
